Tests used:
[1] = test system: O=C(O)CNCP(=O)(O)O; assay: Standard spectrophotometric kcat and KM determination (Example 7); format: biochemical; settings: other: 20 mM HEPES pH 6.8, 10% ethylene glycol, 0.2 mM acetyl CoA, about 23° C.
Procedure: KM was calculated from the initial reaction rates obtained from concentrations of glyphosate ranging from 0.125 to 10 mM, using the Lineweaver-Burke transformation of the Michaelis-Menten equation. kcat/KM was determined by dividing the value determined for kcat by the value determined for KM.

[2] = format: physicochemical; settings: buffer, pH 7.2
Procedure: The half lives of several GAT polypeptides were also measured at 37.5° C. according to the following procedure. GAT polypeptides 401 (SEQ ID NO: 6), 17-15H3 (SEQ ID NO: 601), 20-8H12 (SEQ ID NO: 739), 22-13B12 (SEQ ID NO: 781), 22-15B4 (SEQ ID NO: 946) and 22-18C5 (SEQ ID NO: 795) were incubated in a matrix of 25 mM Hepes, pH 7.2, 10 mM KCl and 10% methanol (“HKM”). At various timepoints, aliquots were withdrawn and assayed in triplicate at 22° C. using the continuous spectrophotometric assay described in Example 7 using saturating concentrations of glyphosate (20 mM for 401, 5 mM for the rest) and AcCoA (167 uM). The standard error at each time point averaged about 2.9%. GAT activity was plotted as a function of incubation time and the data was fitted to a curve for exponential decay (y=e^−x), where y is enzyme activity and x is time in hours, from which half life was calculated.

[3] = GAT activity with substrate L-aspartate (DTNB); format: biochemical
Procedure: (§1) GAT activity of several GAT polypeptides of the present invention was evaluated with respect to a number of amino acid substrates. The GAT polypeptide, AcCoA and amino substrate were incubated in 25 mM Hepes, pH 6.8, 10% ethylene glycol in the wells of a 96-well polystyrene plate. After 30 minutes, the reactions were stopped by the addition of 30 μl of 10 mM 5,5′-dithiobis-2-nitrobenzoate (DTNB) in 500 mM Tris, pH 7.5. After 2 minutes, absorbance was read at 412 nm in a Spectramax Plus plate reader (Molecular Devices, Sunnyvale, Calif.).

[4] = GAT activity with substrate L-serine (DTNB); format: biochemical
Procedure: as §1

[5] = GAT activity with other L-amino acid substrates (DTNB); format: biochemical
Procedure: as §1

[6] = test system: tobacco plants; assay: Herbicide spray tests of GAT expressing tobacco plants; format: in vivo, Nicotiana tabacum; settings: for outcome two weeks after glyphosate spray: 0.5, 2 or 4× glyphosate (1× = 32 oz/acre of 40% ai), clonally propagated events, average of 5 leaves; for outcome after second spray with an 8× dose: 8× glyphosate three weeks later
Procedure: Tobacco shoots generated as described in EXAMPLE 9 were excised from the explants and transferred to basal root induction (BRI) medium composed of half-strength Murashige and Skoog (MS) medium, pH 5.7, with 1.5% sucrose, 0.3% Gelrite, 0-200 uM glyphosate and 400 ug/ml Timentin. Rooted plants and axillary shoots were clonally propagated by cutting the stem and transferring it to fresh BRI medium until the desired number of clones was obtained. Rooted plants were carefully removed from the solid medium. Prior to placing the plants into small pots of soil, the roots were washed to remove any remaining Gelrite. A protective plastic cover was kept over the plants for at least one week until the plants were well established.
To determine if GAT expressing tobacco plants could tolerate simulated field rate sprays of glyphosate, clonal lines of several events per GAT variant were tested. A typical test was set up as follows: One clone from each event was sprayed with 1 ml of solution containing the isopropylamine salt of glyphosate (Sigma P5671) and 0.125% Triton X-100, pH 6.8 such that the amount of active ingredient sprayed was equivalent to that present in commercial glyphosate products. For example, to achieve 32 oz/acre (1×) of herbicide containing 40% active ingredient (“ai”), 2.4 ul of 40% ai formulation was diluted into 1 ml water and sprayed on a plant in a 4-inch square pot (16 in^2). A mock application (0×) with surfactant only was also included. In some cases a second spray was applied 1-4 weeks later. Plants were kept in controlled growth rooms at 25° C. and 70% humidity with 16 hr light.
Seed-grown wild type plants were also sprayed. […] All 0× plants were healthy, including the non-GAT control plants. Three weeks later all of the surviving plants were sprayed with an 8× dose.

[7] = test system: soybean plants; assay: T0 soybean greenhouse glyphosate spray, plant discoloration scores; format: in vivo
Procedure: Soybean plants expressing GAT variant transgenes were produced using the method of particle gun bombardment (see Klein et al. (1987) Nature 327:70-73) using a DuPont Biolistic PDS1000/He instrument. The selection agent used during the transformation process was hygromycin. Either the hygromycin selectable marker gene remained in the transgenic events or the hygromycin gene was excised by methods known in the art. DNA fragments were prepared with a synthetic constitutive promoter, a GAT variant and PinII terminator. The selectable marker gene, comprising the 35S CaMV promoter, HPT gene and NOS terminator, was cobombarded with the GAT gene variant as described above. Bombarded soybean embryogenic suspension tissue was cultured for one week in the absence of selection agent. Embryogenic suspension tissue was placed in liquid selection medium for 6 weeks. Putative transgenic suspension tissue was sampled for PCR analysis to determine the presence of the GAT gene. Putative transgenic suspension culture tissue was maintained in selection medium for 3 weeks to obtain enough tissue for plant regeneration. Suspension tissue was matured for 4 weeks using standard procedures; matured somatic embryos were desiccated for 4-7 days and then placed on germination induction medium for 2-4 weeks. Germinated plantlets were transferred to soil in cell pack trays for 3 weeks for acclimatization. Plantlets were potted to 10-inch pots in the greenhouse for evaluation of glyphosate resistance.
To determine the level of glyphosate resistance of transgenic soybeans expressing the GAT variant transgenes, T0 plants were sprayed with glyphosate (Roundup ULTRA MAX™) in the greenhouse. Plant resistance levels were evaluated by […] • 7=minor leaf/stem discoloration • 5=worse leaf/stem discoloration • 3=severely discolored plant or dying plant • 1=dead plant
One to four plants were sent to the greenhouse from each independent transgenic event. An additional 1-2 plants per event were grown in controlled environment growth chambers for seed production and were not sprayed with glyphosate. The greenhouse plants were sprayed at 1×, 2× or 4× glyphosate (1× glyphosate=26 ounces/acre of RoundUp ULTRA MAX™) 3-4 weeks after transfer to soil. The T0 plant discoloration scores with 2× and 4× spray rates are shown in Table 10 and Table 11, respectively.

[8] = Transfer of the propionyl group from propionyl CoA to glyphosate, DTNB detection; format: biochemical; settings: 1 mM propionyl CoA, 5 mM glyphosate or no glyphosate, 30 minutes
Procedure: The ability of GAT variants (B6 (SEQ ID NO:7), 0—6D10 (SEQ ID NO:448), 17-15H3 (SEQ ID NO:601), and 20-8H12c (SEQ ID NO:817)) to transfer the propionyl group from propionyl CoA to glyphosate was tested in reaction mixtures containing 5 mM glyphosate or no glyphosate. Propionyl CoA was present at 1 mM. After 30 minutes the reactions were terminated and the presence of free […] was determined by the addition of DTNB.

[9] = 10 days after 2X glyphosate (1× = 26 ounces/acre)

## GAT polypeptide (glyphosate-N-acetyltransferase), SEQ ID NO:300 (Bacillus licheniformis DSM 13 = ATCC 14580; A39T/E119K/E67Q/E68K/H57N/I132T/I135V/K58Q/L35S/S62P/V114A)
[1]
  Km: 650 µM
  kcat: 4.93 s⁻¹

## GAT polypeptide (glyphosate-N-acetyltransferase), SEQ ID NO:457 (Bacillus licheniformis DSM 13 = ATCC 14580; A28V/E119K/E65Q/E67Q/E68K/G37R/I132T/I135V/I15L/I2L/K101R/K144R/K58Q/L145I/L97I/R18K/R92K/T89S/V114A/Y130F/Y45F)
[1]
  Km: 100 µM
  kcat: 1.97 s⁻¹

B1: 401: native GAT polypeptide corresponding to SEQ ID NO: 6 (protein, listed as Bacillus licheniformis)
chain: MIEVKPINAEDTYEIRHRILRPNQPLEACMYETDLLGGAFHLGGYYRGKLISIASFHKAEHSELEGEEQYQLRGMATLEGYREQKAGSTLIRHAEELLRKKGADLLWCNARTSVSGYYEKLGFSEQGEVYDIPPIGPHILMYKKLT
modifications: ST401 GAT
[2]
  Half-life: 14 h
[3]
  activity with L-aspartate compared with glyphosate: about as active
[3]; Substrate Aspartate
  kcat/KM % of glyph: 85.5%
[4]
  activity with L-serine compared with glyphosate: about 4.7 times
[4]; Substrate Serine
  kcat/KM % of glyph: 471%
[5]
  number of amino acids with detectable activity, in addition to glyphosate: 12
[5]; L-alanine, 1 mM
  activity relative to activity towards glyphosate: 33%
[5]; L-asparagine, 1 mM
  activity relative to activity towards glyphosate: 27%
[5]; L-cysteine, 1 mM
  activity relative to activity towards glyphosate: 50%
[5]; L-glutamate, 1 mM
  activity relative to activity towards glyphosate: 51%
[5]; L-glutamine, 1 mM
  activity relative to activity towards glyphosate: 32%
[5]; L-histidine, 1 mM
  activity relative to activity towards glyphosate: 10%
[5]; L-threonine, 1 mM
  activity relative to activity towards glyphosate: 250%
[5]; L-tyrosine, 1 mM
  activity relative to activity towards glyphosate: 18%
[5]; L-valine, 1 mM
  activity relative to activity towards glyphosate: 12%
[5]; N-methyl derivatives of L-aspartate (2 mM), L-alanine (10 mM) and glycine (sarcosine, 10 mM)
  activity on N-methyl derivatives of amino acids: No detectable activity
[5]; glycine, 1 mM
  activity relative to activity towards glyphosate: 21%
[5]; the other protein amino acids, either undetected or less than 3%
  activity relative to activity towards glyphosate: less than 3%

B2: 0—5D3: evolved GAT gene, SEQ ID NO:193 (nucleic acid)
DNA: ATGCTAGAGGTGAAACCGATTAACGCAGAGGATACCTATGAACTAAGGCATAGAATACTCAGACCAAACCAGCCGATAGAAGCGTGTATGTATGAAAGCGATTTACTTCGTGGTGCATTTCACTTAGGCGGCTATTACAGGGGCAAACTGATTTCCATAGCTTCATTCCACCAGGCCGAGCACTCAGAACTCCAAGGCCAGAAACAGTACCAGCTCCGAGGTATGGCTACCTTGGAAGGTTATCGTGAGCAGAAAGCGGGATCGAGTCTAATTAAACACGCTGAAGAAATTCTTCGTAAGAGGGGGGCGGACTTGCTTTGGTGTAATGCGCGGACATCCGCCTCAGGCTACTACAAAAAGTTAGGCTTCAGCGAGCAGGGAGAGATATTTGAAACGCCGCCAGTAGGACCTCACATCCTGATGTATAAAAGGATCACATAA
modifications: Synthetic nucleic acid sequence; 0_5D3
[6]
  outcome two weeks after glyphosate spray: survived the spraying procedure without signs of glyphosate damage
  outcome after second spray with an 8× dose: survived
[7]; 10 days after 2X glyphosate
  % EVENTS @ 3-6: 11% (3)
[7]; [9]
  % EVENTS @ 7-8: 15% (4)

B3: 20-8H12c: GAT variant, SEQ ID NO:817 (protein)
chain: MIEVKPINAEDTYELRHRVLRPNQPIEACIFESDLMRGAFHLGGFYGGRLISVASFHQAEHSELQGQKQYQLRGMATLEGYREQKAGSSLVKHAEEILRKRGADLLWCNARTSASGYYKKLGFSEQGEVFDTPPVGPHILMYKRIT
modifications: 20-8H12c
[8]
  glyphosate-dependent hydrolysis of propionyl CoA: showed glyphosate-dependent hydrolysis of propionyl CoA

B4: 0—6D10: evolved GAT; gene SEQ ID NO:196, enzyme SEQ ID NO:448 (protein)
chain: MLEVKPINAEDTYELRHKILRPNQPLEVCMYETDLLRGAFHLGGFYRGKLISIASFHQAEHSDLQGQKQYQLRGMATLEGYRDQKAGSSLIRHAEQILRKRGADMLWCNARTSASGYYKKLGFSEQGEVFETPPVGPHILMYKRLT
modifications: 0_6D10
[6]
  outcome two weeks after glyphosate spray: survived the spraying procedure without signs of glyphosate damage
  outcome after second spray with an 8× dose: survived
[8]
  glyphosate-dependent hydrolysis of propionyl CoA: showed glyphosate-dependent hydrolysis of propionyl CoA

B5: 18-28D9c: GAT transgene, SEQ ID NO:824 (nucleic acid)
DNA: ATGATAGAGGTGAAACCGATTAACGCAGAGGATACCTATGAACTAAGGCATAGAATACTCAGACCAAACCAGCCGATAGAAGCGTGTATGTTTGAAAGCGATTTACTTCGTGGTGCATTTCACTTAGGCGGCTTTTACAGGGGCAAACTGATTTCCATAGCTTCATTCCACCAGGCCGAGCACTCGGAACTCCAAGGCCAGAAACAGTACCAGCTCCGAGGTATGGCTACCTTGGAAGGTTATCGTGAGCAGAAAGCGGGATCAACTCTAGTTAAACACGCTGAAGAAATCCTTCGTAAGAGGGGGGCGGACATGCTTTGGTGTAATGCGAGGACATCCGCCTCAGGCTACTACAAAAAGTTAGGCTTCAGCGAGCAGGGAGAGATATTTGACACGCCGCCAGTAGGACCTCACATCCTGATGTATAAAAGGATCACATAA
modifications: Synthetic nucleic acid sequence; CDS (1)...(441); 18-28D9c
[7]; 10 days after 2X glyphosate
  % EVENTS @ 3-6: 74% (23)
[7]; [9]
  % EVENTS @ 7-8: 8% (3)
[7]; 10 days after 4X glyphosate
  % EVENTS @ 3-6: 43% (10)
  % EVENTS @ 7-8: 8% (2)

Source: US7666644B2, “Glyphosate-N-acetyltransferase (GAT) genes” (Verdia, Inc., priority 2004, dated 2010)
